For the data set, the system named is Escherichia coli TOP10. In words: shrunken log2 fold change of peptide-encoding DNA abundance (4.5 h post-induction vs induction); higher = less antimicrobial activity (less host growth inhibition). Particulars: time post-induction: 4.5 h; library: site-saturation at positions 5, 18, 19, 20.
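Further: peptides expressed intracellularly from a pBAD plasmid library in pooled LB shake-flask culture, induced with 0.3% L-arabinose, DNA abundance read by NGS, three biological replicates, DESeq2 with apeglm shrinkage.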

With RRIRVRPPRLPRPRPRPISNPRP, the “shrunken log2 fold change” value was -0.512.
For RRIRYRPPRLPRPRPRPCNLPRP the value was -0.958; for RRIRLRPPRLPRPRPRPTTLPRP, 0.0342; for RRIRTRPPRLPRPRPRPFAYPRP, -0.136.
The result for RRIRTRPPRLPRPRPRPWDPPRP reads 0.102.
In the case of RRIRARPPRLPRPRPRPEYCPRP, the “shrunken log2 fold change” value came to 0.409.
The result for RRIRKRPPRLPRPRPRPRRVPRP reads 0.569; that for RRIRSRPPRLPRPRPRPHHHPRP, -0.736; that for RRIRARPPRLPRPRPRPLSRPRP, 0.203.
For RRIRCRPPRLPRPRPRPVWTPRP the value was 0.0232; for RRIRHRPPRLPRPRPRPMTTPRP, -0.125; for RRIRCRPPRLPRPRPRPLGAPRP, 0.444.
Consider RRIRPRPPRLPRPRPRPVTAPRP, for which the “shrunken log2 fold change” value came to 0.385.
For RRIRCRPPRLPRPRPRPVVFPRP the value was -0.123.
The result for RRIRPRPPRLPRPRPRPKEPPRP reads 0.133; that for RRIRERPPRLPRPRPRPAAHPRP, -0.128.
Consider RRIRDRPPRLPRPRPRPEITPRP, for which the “shrunken log2 fold change” value was found to be 0.0482.
For RRIRCRPPRLPRPRPRPEVAPRP, the “shrunken log2 fold change” value came to 0.293.
For RRIRFRPPRLPRPRPRPDDFPRP the value was 0.0834; for RRIRWRPPRLPRPRPRPTNHPRP, -0.245.
In the case of RRIRYRPPRLPRPRPRPSTRPRP, the “shrunken log2 fold change” value was -0.367.
The result for RRIRERPPRLPRPRPRPINRPRP reads -0.017; that for RRIRVRPPRLPRPRPRPLFTPRP, -0.448.
For RRIRERPPRLPRPRPRPGEDPRP, the “shrunken log2 fold change” value is -0.0649.
The result for RRIRRRPPRLPRPRPRPIMHPRP reads -0.094; that for RRIRDRPPRLPRPRPRPFCGPRP, 0.258.
For RRIRQRPPRLPRPRPRPGSYPRP the value was -0.2.
For RRIRPRPPRLPRPRPRPWMLPRP the value was -0.168; for RRIRIRPPRLPRPRPRPSQPPRP, 0.101.
Take RRIRNRPPRLPRPRPRPPGSPRP: the “shrunken log2 fold change” value is -0.123.
The result for RRIRFRPPRLPRPRPRPNCEPRP reads 0.194.
Regarding RRIRLRPPRLPRPRPRPTEEPRP, the “shrunken log2 fold change” value was -0.0651.
Consider RRIRERPPRLPRPRPRPQTTPRP, for which the “shrunken log2 fold change” value is 0.0104.
For RRIRCRPPRLPRPRPRPIHRPRP the value was -0.0331; for RRIRCRPPRLPRPRPRPGIKPRP, -0.876.
Take RRIRYRPPRLPRPRPRPLLNPRP: the “shrunken log2 fold change” value is -0.19.
In the case of RRIRHRPPRLPRPRPRPRDLPRP, the “shrunken log2 fold change” value is -0.0495.
The result for RRIRSRPPRLPRPRPRPHNIPRP reads -0.211; that for RRIRYRPPRLPRPRPRPWFRPRP, -0.567; that for RRIRYRPPRLPRPRPRPCHLPRP, -0.019.
The result for RRIRYRPPRLPRPRPRPRCCPRP reads -0.233; that for RRIRKRPPRLPRPRPRPPCQPRP, 0.47.
For RRIRSRPPRLPRPRPRPDLWPRP the value was 0.349.
For the sequence RRIRKRPPRLPRPRPRPCFDPRP, the “shrunken log2 fold change” value was 0.0357.
On to RRIRVRPPRLPRPRPRPVQYPRP, for which the “shrunken log2 fold change” value is -0.0224.
RRIRNRPPRLPRPRPRPNAFPRP: the “shrunken log2 fold change” value was -0.126.
As to RRIRWRPPRLPRPRPRPRSMPRP, the “shrunken log2 fold change” value is 0.0304.
As to RRIRYRPPRLPRPRPRPGFLPRP, the “shrunken log2 fold change” value was -0.454.
For RRIRQRPPRLPRPRPRPLGNPRP the value was -0.263; for RRIRGRPPRLPRPRPRPALTPRP, 0.874.
The result for RRIRARPPRLPRPRPRPAWIPRP reads 0.116; that for RRIRLRPPRLPRPRPRPHSTPRP, -0.149.
On to RRIRWRPPRLPRPRPRPMQSPRP, for which the “shrunken log2 fold change” value came out at 0.185.
The result for RRIRERPPRLPRPRPRPEVIPRP reads -0.00884; that for RRIRHRPPRLPRPRPRPLGAPRP, -0.0242.
The result for RRIRHRPPRLPRPRPRPPQSPRP reads 0.193; that for RRIRDRPPRLPRPRPRPQIQPRP, -0.221; that for RRIRHRPPRLPRPRPRPGAGPRP, 0.395.
RRIRQRPPRLPRPRPRPNDGPRP: the “shrunken log2 fold change” value was -0.000777.
With RRIRIRPPRLPRPRPRPYNQPRP, the “shrunken log2 fold change” value was -1.01.
For RRIRNRPPRLPRPRPRPIHHPRP the value was -0.383.
For RRIRTRPPRLPRPRPRPQKDPRP the value was -0.455.
As to RRIRMRPPRLPRPRPRPAMGPRP, the “shrunken log2 fold change” value amounted to 0.867.
For RRIRNRPPRLPRPRPRPYRLPRP the value was -0.00674; for RRIRVRPPRLPRPRPRPMHGPRP, 0.00623.
Take RRIRERPPRLPRPRPRPPRMPRP: the “shrunken log2 fold change” value was 0.027.
On to RRIRDRPPRLPRPRPRPATWPRP, for which the “shrunken log2 fold change” value came out at 0.754.
Consider RRIRIRPPRLPRPRPRPHGLPRP, for which the “shrunken log2 fold change” value was -0.00134.
The result for RRIRYRPPRLPRPRPRPVWIPRP reads -1.23.
As to RRIRLRPPRLPRPRPRPEFTPRP, the “shrunken log2 fold change” value was -0.0622.
The result for RRIRSRPPRLPRPRPRPSLIPRP reads -0.0623.
The result for RRIRHRPPRLPRPRPRPCFCPRP reads -0.226.
The result for RRIRQRPPRLPRPRPRPDYLPRP reads -0.212; that for RRIRHRPPRLPRPRPRPPMKPRP, -0.278; that for RRIRKRPPRLPRPRPRPHAAPRP, -0.0457.
Take RRIRNRPPRLPRPRPRPDPRPRP: the “shrunken log2 fold change” value came out at 0.562.
As for RRIRARPPRLPRPRPRPISEPRP, the “shrunken log2 fold change” value is 0.0696.
For RRIRIRPPRLPRPRPRPQYEPRP the value was -0.184.
The result for RRIRQRPPRLPRPRPRPGDRPRP reads 0.132; that for RRIRARPPRLPRPRPRPFSIPRP, 0.111.
For the sequence RRIRIRPPRLPRPRPRPDKCPRP, the “shrunken log2 fold change” value is -0.0188.
For RRIRFRPPRLPRPRPRPIQIPRP the value was -0.234; for RRIRFRPPRLPRPRPRPDQNPRP, -0.203; for RRIRVRPPRLPRPRPRPRKYPRP, -0.0723.
For RRIRLRPPRLPRPRPRPEDNPRP the value was 0.0216; for RRIRQRPPRLPRPRPRPYGMPRP, -0.549.
Consider RRIRTRPPRLPRPRPRPVIFPRP, for which the “shrunken log2 fold change” value is -0.335.
Regarding RRIRPRPPRLPRPRPRPFSEPRP, the “shrunken log2 fold change” value is -0.436.
The result for RRIRHRPPRLPRPRPRPMTLPRP reads -0.0135; that for RRIRPRPPRLPRPRPRPFCYPRP, -0.26; that for RRIRTRPPRLPRPRPRPFECPRP, -0.143.

These data come from the supplement of paper PMC9112550, “Optimization of the antimicrobial peptide Bac7 by deep mutational scanning” (BMC Biology, 2022).
